This note sets out measurements from patent publication US5792629A, “Isolated DNA encoding novel protease inhibitory polypeptide” (Mochida Pharmaceutical Co., Ltd., priority 1990, dated 1998).

One assay concerns the target T1, Human trypsin (Homo sapiens, UniProt P07477).
T1 construct: purchased Calbiochem
As to the kind of experiment: Human trypsin-inhibiting activity, substrate S-2444. The format is biochemical. As to conditions: purified sample, various concentrations; remaining activity vs buffer control (FIG. 14A-C). On the procedure:
The purified sample obtained in Example 1-(5) was dissolved in 100 μl of distilled water. Concentration of this solution was determined based on its bovine trypsin-inhibiting activity using the aforementioned UTI as a standard. The solution was then diluted to various concentration levels with 0.1% BSA/0.2M triethanolamine-HCl buffer (pH 7.8) for the activity measurement. The aforementioned UTI was also diluted in the same manner.
Using the aforementioned synthetic compound S-2444 as a substrate, human trypsin-inhibiting activities of the diluted test samples and the positive control were measured in accordance with the method of Kassell (Kassell B., Methods in Enzymol., vol 19, pp.84-852, 1970) as follows.
Human trypsin (Calbiochem) was dissolved in 0.001M HCl to a concentration of 1,000 SU/ml and the solution was further diluted with 0.1% BSA/0.2M triethanolamine-HCl buffer (pH 7.8) to prepare 1.25 SU/ml of trypsin solution. 2 mM solution of S-2444 was prepared by dissolving it in distilled water.
Next, 100 μl of the test sample or positive control was mixed with 100 μl of the trypsin solution. After incubation at 37° C. for 10 minutes, 50 μl of the S-2444 solution was added to the mixture to start the reaction. The reaction was carried out at 37° C. for 20 minutes and then stopped by adding 50 μl of 50% acetic acid solution to the reaction mixture. Thereafter, absorbance at 405 nm was measured using a spectrophotometer.
In this instance, in order to eliminate absorbance of various solutions in the reaction mixture, a blank solution was prepared by mixing 100 μl of the trypsin solution with 50 μl of 50% acetic acid and then with 100 μl of each test sample or the positive control and with 50 μl of the S-2444 solution.
In this figure, human trypsin remaining activity was expressed by percentage based on the absorbance of a control reaction mixture in which 100 μl of 0.1% BSA/0.2M triethanolamine-HCl buffer (pH 7.8) was used instead of the test sample or the positive control.

A further assay deals with FXa (Homo sapiens, UniProt P00742). In words: Human FXa-inhibiting activity, substrate S-2222. The format is biochemical. Also noted: purchased American Diagnostica Inc. Particulars: for human FXa-inhibiting activity: purified sample, various concentrations, remaining activity vs buffer control (FIG. 18A-C). As to the method:
The purified sample obtained in Example 1-(5) was dissolved in 100 μl of distilled water. Concentration of this solution was determined based on its bovine trypsin-inhibiting activity using the aforementioned UTI as a standard. The solution was then diluted to various concentration levels with 0.1% BSA/150 mM NaCl/5 mM CaCl2 /50 mM Tris-HCl buffer (pH 8.3) for use in the activity measurement. The UTI was also diluted in the same manner. Using a synthetic compound S-2222 (Daiichi Pure Chemicals Co., Ltd.) as a substrate, human FXa-inhibiting activities of the diluted test samples and the positive control were measured in accordance with the method of Ohno et al. (Ohno,H. et al., Thromb. Res., vol.19, pp.579-588, 1980) as follows.
Human FXa (American Diagnostica Inc.) was dissolved in distilled water to a concentration of 10 PEU/ml and the solution was further diluted with 0.1% BSA/150 mM NaCl/5 mM CaCl2 /50 mM Tris-HCl buffer (pH 8.3) to prepare 0.1 PEU/ml of FXa solution. 4 mM solution of S-2222 was prepared by dissolving it in distilled water and the solution was further diluted with 0.1% BSA/150 mM NaCl/5 MM CaCl2 /50 mM Tris-HCl buffer (pH 8.3) to obtain 2 mM solution of S-2222.
Next, 25 μl of the test sample or positive control was mixed with 100 μl of 0.1% BSA/150 mM NaCl/5 mM CaCl2 /50 mM Tris-HCl buffer (pH 8.3) and 25 μl of the FXa solution. After incubation at 37° C. for 10 minutes, 100 μl of the S-2222 solution was added to the mixture to start the reaction. The reaction was carried out at 37° C. for 30 minutes and then stopped by adding 50 μl of 50% acetic acid solution to the reaction mixture. Thereafter, absorbance at 405 nm was measured using a spectrophotometer.
In this instance, in order to eliminate absorbance of various solutions in the reaction mixture, a blank solution was prepared by mixing 25 μl of the FXa solution with 50 μl of 50% acetic acid and then with 25 μl of each test sample or the positive control, 100 μl of 0.1% BSA/150 mM NaCl/5 mM CaCl2 /50 mM Tris-HCl buffer (pH 8.3) and with 100 μl of the S-2222 solution.
In this figure, human FXa remaining activity was expressed by percentage based on the absorbance of a control reaction mixture in which 25 μl of 0.1% BSA/150 mM NaCl/5 mM CaCl2 /50 mM Tris-HCl buffer (pH 8.3) was used instead of the test sample or the positive control.

FXa, sequence (P00742 235-488 limits assumed): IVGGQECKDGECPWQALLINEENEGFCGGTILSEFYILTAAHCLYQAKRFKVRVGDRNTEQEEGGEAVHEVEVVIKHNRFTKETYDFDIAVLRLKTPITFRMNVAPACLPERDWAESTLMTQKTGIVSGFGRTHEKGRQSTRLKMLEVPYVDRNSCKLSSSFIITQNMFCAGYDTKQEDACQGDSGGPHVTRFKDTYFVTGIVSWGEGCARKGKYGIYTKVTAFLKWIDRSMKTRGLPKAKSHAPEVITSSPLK
FXa, sequence (P00742 41-179 partner limits assumed): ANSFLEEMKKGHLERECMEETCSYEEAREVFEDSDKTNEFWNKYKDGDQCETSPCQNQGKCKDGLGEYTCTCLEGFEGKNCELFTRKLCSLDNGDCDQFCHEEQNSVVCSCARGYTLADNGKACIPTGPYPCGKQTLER

Consider “CC51: polypeptide defined by the amino acid sequence of formula 1, purified from culture supernatant of E. coli JE5505 (pM560) (CNLPIVRGPCRAFIQLWAFDAVKGKCVLFPYGGCQGNGNKFYSEKECREYC)”, for which the human trypsin-inhibiting activity result with Human trypsin is listed as “activity was found”. Also, in the assay with FXa, the “human FXa-inhibiting activity” value is “activity was found”.

B1: UTI: urinary trypsin inhibitor purified from human urine (Mochida Pharmaceutical), used as positive control (protein)
chain: AVLPQEEEGSGGGQLVTEVTKKEDSCQLGYSAGPCMGMTSRYFYNGTSMACETFQYGGCMGNGNNFVTEKECLQTCRTVAACNLPIVRGPCRAFIQLWAFDAVKGKCVLFPYGGCQGNGNKFYSEKECREYCGVPGDGDEELLRFSN
modifications: glycoprotein (sugar moieties, as the filing says in general of UTI)
As for B1, the human trypsin-inhibiting activity result in the assay with Human trypsin is “activity was found”. Besides, the FXa-inhibiting activity result in the assay with FXa (experiments of the inventors, even at an extremely high concentration) is “no FXa-inhibiting activity was found”. Moreover, the “human FXa-inhibiting activity” value with FXa is recorded as “activity was not found”.

B2: TN70: polypeptide defined by the amino acid sequence of formula 3, purified from culture supernatant of E. coli JE5505 (pM552) (protein)
chain: TVAACNLPIVRGPCRAFIQLWAFDAVKGKCVLFPYGGCQGNGNKFYSEKECREYCGVPGDGDEELLRFSN
With B2, in the assay with Human trypsin, the human trypsin-inhibiting activity entry was “activity was found”. Also, the “human FXa-inhibiting activity” value with FXa is “activity was found”.

B3: TL66: polypeptide defined by formula 8; known enzyme-digested fragment of urinary trypsin inhibitor, made in E. coli JE5505 (pM551) (protein)
chain: TVAACNLPIVRGPCRAFIQLWAFDAVKGKCVLFPYGGCQGNGNKFYSEKECREYCGVPGDGDEELL
With B3, the human trypsin-inhibiting activity result in the assay with Human trypsin is “activity was found”. In addition, the “human FXa-inhibiting activity” value in the assay with FXa is listed as “activity was found”.
